Assay results published in patent US20110008356A1.

Molecular target: Human IL-17RC:Fc (human) (UniProt Q8NAC3)
Assay: SPR (BIAcore 3000), receptor:Fc captured by anti-human Fc, cytokine as analyte, koff/kon, 1:1 Langmuir fit

Human IL-17A, sequence (Q16552 20-155 limits assumed): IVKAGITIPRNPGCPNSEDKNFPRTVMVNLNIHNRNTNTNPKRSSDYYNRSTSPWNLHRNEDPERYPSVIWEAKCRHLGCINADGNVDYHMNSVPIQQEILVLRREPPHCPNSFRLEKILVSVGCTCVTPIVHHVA

Row | Kd | Substance
1 | 50 pM | Human IL-17A (from UniProt Q16552 20-155) (ligand)
2 | 30 pM | Mouse IL-17F (from UniProt Q7TNI7 29-161) (ligand)
